Laboratory results from patent publication US20250145701A1 (REMEGEN SHANGHAI, published 2025).

B1: Strain #48 VHH (Fc fusion)
chain: EVQLLESGGGLVQPGGSLRLSCAASGFTFSTSTMSWYRQAPGKERELVSFITSAGATTYYADSVKGRFTMSRDNSKNTVYLQMNSLRAEDTAVYYCRALVTLWNVYWGQGTLVTVSS
notes: Humanized variant of #6 (Q1E+Q5L+A49S+N58Y+D65G+D74S+V(82B)S+K83R+P84A+M89V+Q108L, Kabat); not shown: A printed molecular weight of 76.46 kD and detection by anti-human IgG Fc p
B2: #16 bispecific antibody targeting PD-1 and VEGF (bispecific antibody, human IgG1, kappa)
heavy: QVQLVQSGVEVKKPGASVKVSCKASGYTFTNYYMYWVRQAPGQGLEWMGGINPSNGGTNFNEKFKNRVTLTTDSSTTTAYMELKSLQFDDTAVYYCARRDYRFDMGFDYWGQGTTVTVSSASTKGPSVFPLAPSSKSTSGGTAALGCLVKDYFPEPVTVSWNSGALTSGVHTFPAVLQSSGLYSLSSVVTVPSSSLGTQTYICNVNHKPSNTKVDKKVEPKSCDKTHTCPPCPAPEAEGAPSVFLFPPKPKDTLMISRTPEVTCVVVDVSHEDPEVKFNWYVDGVEVHNAKTKPREEQYNSTYRVVSVLTVLHQDWLNGKEYKCKVSNKALPSSIEKTISKAKGQPREPQVYTLPPSREEMTKNQVSLTCLVKGFYPSDIAVEWESNGQPENNYKTTPPVLDSDGSFFLYSKLTVDKSRWQQGNVFSCSVMHEALHNHYTQKSLSLSPGEVQLLESGGGLVQPGGSLRLSCAASGFTFSTSTMSWYRQAPGKERELVSFITSAGATTYYADSVKGRFTMSRDNSKNTVYLQMNSLRAEDTAVYYCRALVTLWNVYWGQGTLVTVSS
light: EIVLTQSPATLSLSPGERATLSCRASKGVSTSGYSYLHWYQQKPGQAPRLLIYLASYLESGVPARFSGSGSGTDFTLTISSLEPEDFAVYYCQHSRDLPLTFGGGTKVEIKRTVAAPSVFIFPPSDEQLKSGTASVVCLLNNFYPREAKVQWKVDNALQSGNSQESVTEQDSKDSTYSLSSTLTLSKADYEKHKVYACEVTHQGLSSPVTKSFNRGEC
notes: Valence is 2+2

Assays:
[1] = biological target: T1, human VEGF (ACRO, His tag) (human, UniProt P15692-4 27-191, limits assumed); test: ELISA, human VEGF-His coated at 50 ng/ml, anti-human IgG Fc detection, OD450
T1 construct: Bought protein; not shown: His tag

[2] = biological target: T2, monkey PD-1 (ACRO, His tag) (monkey, UniProt B0LAJ3 25-170); test: ELISA, monkey PD-1-His coated at 1 ug/mL, anti-human IgG Fc detection, OD450
T2 construct: Bought protein
Protocol: The binding of candidate molecules and competitor to antigens of different species was detected by ELISA. […] The binding of antibodies to monkey PD-1 was detected by ELISA. An ELISA plate was coated with 1 μg/mL monkey PD-1 (ACRO, His tag) overnight and blocked. Subsequently, the plate was added with gradient dilutions of the sample to be tested and the control antibody, incubated and washed. Then, the plate was added with HRP-labeled anti-human IgG Fc secondary antibody, incubated and washed. After TMB solution was added for color development, the OD450 absorbance value was read on a microplate reader (see Table 15).

[3] = biological target: VEGF (species and construct not stated); test: cell-based or functional assay
[4] = biological target: T3, human PD-1 (ACRO, His tag) (human, UniProt Q15116 25-167); test: bridging ELISA: human PD-1-His coated at 1 ug/mL, antibody, then biotinylated human VEGF at 50 ng/ml and streptavidin-HRP, OD450
T3 construct: Bought protein; not shown: His tag
Protocol: The order of the binding to VEGF and PD-1 was changed for dual ELISA detection. A 96-well ELISA plate was coated with 1 μg/mL human PD-1 (ACRO, His tag) overnight, washed and blocked for 1 hour. […] TMB solution was added for color development, and the OD450 nm absorbance value was read on a microplate reader.

[5] = biological target: T3, human PD-1 (ACRO, His tag); test: ELISA, human PD-1-His coated at 1 ug/mL, anti-human IgG Fc detection, OD450
Protocol: The binding of the antibody to human PD-1 was detected by ELISA. 1 μg/mL human PD-1 (ACRO, His tag) was coated on an ELISA plate overnight and blocked. Subsequently, the plate was added with gradient dilutions of the bispecific antibody and the control antibody, incubated and washed. Then, the plate was added with HRP-labeled anti-human IgG Fc secondary antibody, incubated and washed. After TMB solution was added for color development, the OD450 absorbance value was read on a microplate reader (see Table 12). […] Subsequently, the plate was added with gradient dilutions of the sample to be tested and the control antibody, incubated and washed. Then, the plated was added with HRP-labeled anti-human IgG Fc secondary antibody, incubated and washed. After TMB solution was added for color development, the OD450 absorbance value was read on a microplate reader (see Table 13). […] (The control substances were all obtained by in-house expression and purification)

T3 sequence (Q15116 25-167 limits assumed): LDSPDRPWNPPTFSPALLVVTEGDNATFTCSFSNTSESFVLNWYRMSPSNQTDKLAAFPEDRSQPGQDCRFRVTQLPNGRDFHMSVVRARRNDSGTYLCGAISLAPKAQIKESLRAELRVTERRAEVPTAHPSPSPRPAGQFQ
T1 sequence (P15692 other isoform, or with tags, fused parts or gaps limits assumed): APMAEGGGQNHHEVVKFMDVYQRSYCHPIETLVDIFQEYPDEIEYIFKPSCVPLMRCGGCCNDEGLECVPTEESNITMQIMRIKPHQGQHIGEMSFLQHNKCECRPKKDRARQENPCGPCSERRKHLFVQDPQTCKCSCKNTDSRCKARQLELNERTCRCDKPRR
Sequence of VEGF (species and construct not stated) (P15692 whole entry): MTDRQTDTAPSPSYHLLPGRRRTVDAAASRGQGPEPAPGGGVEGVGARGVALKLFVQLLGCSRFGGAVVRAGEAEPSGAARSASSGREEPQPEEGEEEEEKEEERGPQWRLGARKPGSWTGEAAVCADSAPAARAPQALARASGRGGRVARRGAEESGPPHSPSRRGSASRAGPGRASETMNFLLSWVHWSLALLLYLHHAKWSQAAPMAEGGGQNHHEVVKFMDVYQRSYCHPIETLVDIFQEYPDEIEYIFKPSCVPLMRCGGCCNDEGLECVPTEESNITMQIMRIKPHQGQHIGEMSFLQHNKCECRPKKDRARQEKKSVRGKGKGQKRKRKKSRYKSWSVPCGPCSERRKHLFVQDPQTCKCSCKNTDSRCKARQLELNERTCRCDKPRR
T2 sequence (B0LAJ3 entry or part of it limits assumed, form in doubt): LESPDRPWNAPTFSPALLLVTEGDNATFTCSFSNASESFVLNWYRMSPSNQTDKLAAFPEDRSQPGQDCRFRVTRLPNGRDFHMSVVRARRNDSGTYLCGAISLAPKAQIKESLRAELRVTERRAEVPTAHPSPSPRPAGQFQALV

Row | Binder | TOP OD [1] | TOP OD [2] | maximum inhibition rate of HUVEC proliferation [3] | TOP OD [4] | TOP OD [5]
1 | B1 | 3.09 OD | – | – | – | –
2 | B2 | 1.75 OD | 3.38 OD | ~60% | 3.65 OD | 2.58 OD
